US20190184026A1
Blank lines part the entries; values can stand above or below the substance they belong to.

How the values were obtained:
Experiment in all cases: cell-based or functional assay
[1] = molecular target: lactating receptors of the Nb2 cells (rat) (UniProt P05710)
[2] = molecular target: CD3 (on T cells of human PBMCs) (human)
[3] = molecular target: human GLP-1R (human) (UniProt P43220)
human GLP-1R (human), sequence (P43220 24-463): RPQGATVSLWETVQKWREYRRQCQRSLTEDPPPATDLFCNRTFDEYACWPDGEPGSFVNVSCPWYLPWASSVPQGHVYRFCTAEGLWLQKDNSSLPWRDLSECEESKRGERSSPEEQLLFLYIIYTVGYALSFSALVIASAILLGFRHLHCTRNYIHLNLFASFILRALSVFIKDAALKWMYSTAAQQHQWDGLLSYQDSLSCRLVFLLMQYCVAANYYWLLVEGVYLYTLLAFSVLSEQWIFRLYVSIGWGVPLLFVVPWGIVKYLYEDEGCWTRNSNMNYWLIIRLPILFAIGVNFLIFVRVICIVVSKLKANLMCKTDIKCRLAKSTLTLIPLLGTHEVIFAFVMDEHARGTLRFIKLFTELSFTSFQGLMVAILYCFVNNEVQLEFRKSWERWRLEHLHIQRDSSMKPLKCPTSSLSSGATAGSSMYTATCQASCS

lactating receptors of the Nb2 cells (rat), sequence (P05710 20-610): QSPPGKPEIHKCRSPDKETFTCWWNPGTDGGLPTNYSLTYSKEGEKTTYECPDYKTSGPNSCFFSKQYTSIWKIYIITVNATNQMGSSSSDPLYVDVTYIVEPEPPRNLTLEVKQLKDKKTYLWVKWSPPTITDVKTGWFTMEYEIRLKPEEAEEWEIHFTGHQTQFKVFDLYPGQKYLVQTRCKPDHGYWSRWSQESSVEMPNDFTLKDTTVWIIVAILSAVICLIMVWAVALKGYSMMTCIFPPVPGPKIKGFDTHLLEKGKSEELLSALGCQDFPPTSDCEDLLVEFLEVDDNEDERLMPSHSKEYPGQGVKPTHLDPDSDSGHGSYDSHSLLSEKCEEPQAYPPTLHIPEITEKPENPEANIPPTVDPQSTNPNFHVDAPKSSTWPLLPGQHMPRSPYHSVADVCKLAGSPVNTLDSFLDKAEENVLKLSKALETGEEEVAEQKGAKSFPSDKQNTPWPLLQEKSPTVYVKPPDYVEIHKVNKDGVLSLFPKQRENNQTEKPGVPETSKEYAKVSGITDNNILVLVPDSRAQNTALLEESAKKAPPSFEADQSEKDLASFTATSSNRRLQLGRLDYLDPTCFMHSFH

EC50 (Nb2 cell proliferation, CCK-8) [1]: 0.00694 nM
Substance: hGH (from UniProt P01241 27-217) (ligand)

EC50 of activation of human PBMCs (CCK-8, absorbance at 492 nM) [2]: 0.015 nM
Substance: anti-CD3 monoclonal antibody OKT3

in vitro activity EC50 (CRE-Luc reporter, CHO-K1 cells with human GLP-1R) [3]: 0.0299 nM
Substance: duraglutide (Eli Lilly, Cat. No. 9301897) (Fc fusion)
